Assay results: article PMC5464003
One block for each binder: values may come before it.

Tests used:
[1] = molecular target: GST-F28F8.5 (C. elegans) (UniProt H9G301); experiment: pull-down; GST-F28F8.5 or GST adsorbed in equal amounts on glutathione-agarose, incubated with His6-MDT-30-FLAG purified on a nickel column; Western blot with anti-FLAG M2, densitometry (ImageJ)
[2] = molecular target: GST-F28F8.5 (C. elegans) (UniProt H9G301); experiment: pull-down; GST-F28F8.5 or GST adsorbed in equal amounts on glutathione-agarose, incubated with 35S-MDT-6 from rabbit reticulocyte lysate; bound fraction resolved by PAGE, autoradiography, excised bands counted by scintillation

fold enrichment over GST alone [1]: 2.5 fold
B1: His6-MDT-30-FLAG (natural protein)
chain: MNPNQPPNYPPGNPNQPPPFPPTPYYPMYQAGMPMPYIPQSPQYPQPGPPGGPPPFMGIQIKQEPMWSQENRYGMQAGPSGMPGMPPSSHPYGYPPMHGMPPGMPQGMPPMMDPNMPDFSSPPMHHPTTSLLAQHLSSAPLPPAPPQQQSHLSQLLQQPTTYSTATNPHAAPTQTIARRPDNEARNAQLQEQELAARQQQQQEYMLQQHQQQQQNRAGQLQAEQAFANPPTVSIPPQTGHPPQQTSASSQQRAQETMAQQTEPQSHIRESPQKETNLEKYSTGELCLYGRELVNDLNVKTSYLSTILKKVMERKPLNQGENPNDLADQCKNALQRMSDIRQIIEKRREPTWKRMTGEDYIELMLDDSELKKPMDEERQKRRAELEQRFAIVISKTPPVEGHIWYQGKWISEELHKKYMQFEANKEIVKNLAAELKALAWKIDVTSPGHLKKVDQTKISKKKTDDQV

fold enrichment over GST alone [2]: 7.7 fold
B2: 35S-Methionine-MDT-6 (natural protein)
chain: MMPRMGPPAAARQDNPLHVSFRNPQWPPNFINKDNVLDYFCNQANAFYEMNSCNQQIRMQNIVNRTVEECLRTMPGIQYVLWYSQPPLFIICKQRRNNVTNVSPIAYYYVINGSVHQAPDMYSLVQSRLLGALEPLRNAFGEVTNYSRYNTAKGYYWEFKNKPNVKKREEEKKEDEEEKLEDRSTNFQKTRTMMLLNQLFSEMPAEDALEREEKEEVEEEEEETLKTEEPTTSTDEPKFAEPTARTTSKQ
modifications: 35S-methionine label
